# T1: Csa5 (UniProt Q97Y90 1-150)
# T1 sequence: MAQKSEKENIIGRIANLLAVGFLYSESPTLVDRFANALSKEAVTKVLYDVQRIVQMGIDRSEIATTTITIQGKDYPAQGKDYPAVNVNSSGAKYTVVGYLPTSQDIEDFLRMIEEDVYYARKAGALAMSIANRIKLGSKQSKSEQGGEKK
# T2: Cas5 (Cas5/Cas7 core complex);Cas7 (Cas5/Cas7 core complex) (Sulfolobus solfataricus P2?;Sulfolobus …, UniProt Q97Y92;Q97Y91 1-240;1-321, |)
# T2 sequence 1: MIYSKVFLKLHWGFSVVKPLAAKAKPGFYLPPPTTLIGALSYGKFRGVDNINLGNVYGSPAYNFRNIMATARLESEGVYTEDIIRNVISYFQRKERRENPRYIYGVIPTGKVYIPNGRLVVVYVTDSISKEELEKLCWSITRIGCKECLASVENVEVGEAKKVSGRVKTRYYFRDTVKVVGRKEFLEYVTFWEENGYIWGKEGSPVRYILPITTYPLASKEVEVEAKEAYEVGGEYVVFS
# T2 sequence 2: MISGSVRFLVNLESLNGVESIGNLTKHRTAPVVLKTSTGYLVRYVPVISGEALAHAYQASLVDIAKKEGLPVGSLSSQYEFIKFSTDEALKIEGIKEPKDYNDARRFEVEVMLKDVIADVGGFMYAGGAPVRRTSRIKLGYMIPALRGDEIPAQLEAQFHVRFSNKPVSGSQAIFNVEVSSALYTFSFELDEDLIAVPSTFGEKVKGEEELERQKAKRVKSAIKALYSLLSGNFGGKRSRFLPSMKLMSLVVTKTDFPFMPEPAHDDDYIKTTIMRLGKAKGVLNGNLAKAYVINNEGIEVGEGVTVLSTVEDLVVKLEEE
# Key:
# Csa5 = molecular target: T1, Csa5; assay: fluorescence anisotropy
# [1] = molecular target: T2, Cas5 (Cas5/Cas7 core complex);Cas7 …; assay: fluorescence anisotropy
# crystal structure = molecular target: the molecule itself; assay: crystal structure
# SEC = molecular target: the molecule itself; assay: SEC
Binder,binding result (Csa5),further results
"crRNA (spacer 26, CRISPR locus A) (ssRNA) RNA: AUUGAAAGACCAUACCCAACUUCUAACAACGUCGUUCUUAACAACGGAUUAAUCCCAAAA",no binding,Kd [1]: 1380 ± 140 nM
crRNA/protospacer heteroduplex (DNA:RNA) RNA: AUUGAAAGACCAUACCCAACUUCUAACAACGUCGUUCUUAACAACGGAUUAAUCCCAAAA DNA: GATCCTCTCCACGTTGTTAAGAACGACGTTGTTAGAAGTTGGGTATGGTTGGCTG,no binding,–
CCTCGAGGGATCCGTCCTAGCAAGCCGCTGCTACCGGAAGCTTCTGGACC (ssDNA) [non-target ssDNA],no binding,–
"Sso1398 (Csa5 paralog), selenomethionyl derivative (natural protein, S. solfataricus, selenomethionine in place of methionine) MEASEPVAETISKRFWTLIKMLRFYVVLRRFGYIDPLIYSIDPKQIKDVLSEALREFVSYTSSSSSRSIVIYDDPKNPVTAQAPCLVVAKRDEIPQNFPSIYRYTIYKIDKSSEYCISPLVVNDKYATLITPNESVIKEFFDKLDSNIQYARVLASLAVGGE",–,binding result (crystal structure): binds
"Sso1398 wild type (Csa5 paralog) (natural protein, S. solfataricus) MEASEPVAETISKRFWTLIKMLRFYVVLRRFGYIDPLIYSIDPKQIKDVLSEALREFVSYTSSSSSRSIVIYDDPKNPVTAQAPCLVVAKRDEIPQNFPSIYRYTIYKIDKSSEYCISPLVVNDKYATLITPNESVIKEFFDKLDSNIQYARVLASLAVGGE",–,binding result (SEC): binds

# Source: publication PMC3737334 (RNA Biology, 2013)
